The target in one data set is T1, DDX1 lacking D2 domain (UniProt Q92499 1-450).
T1 sequence: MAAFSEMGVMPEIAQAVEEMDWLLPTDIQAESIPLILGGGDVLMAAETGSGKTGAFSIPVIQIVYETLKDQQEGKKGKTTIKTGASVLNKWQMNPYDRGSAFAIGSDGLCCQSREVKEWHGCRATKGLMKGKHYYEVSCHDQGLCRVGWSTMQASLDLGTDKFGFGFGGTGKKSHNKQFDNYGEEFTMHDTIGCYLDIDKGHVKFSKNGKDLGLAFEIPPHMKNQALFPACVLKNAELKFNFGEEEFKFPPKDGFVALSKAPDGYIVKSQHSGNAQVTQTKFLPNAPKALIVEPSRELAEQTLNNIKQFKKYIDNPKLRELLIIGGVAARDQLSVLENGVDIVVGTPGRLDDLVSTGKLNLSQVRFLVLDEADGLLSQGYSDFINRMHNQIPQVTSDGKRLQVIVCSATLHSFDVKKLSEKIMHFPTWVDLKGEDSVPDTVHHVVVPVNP
Description: ITC; ITC: 20 mM Tris pH 7.5, 150 mM NaCl, 25 C; YTH labelling: 3 uM YTH, 12 uM BP/CP (200 mM NaCl chosen after optimization); pull-down: HeLa RIPA lysate, 4 C, UV 6. The following applies: protein: recombinant; tags: pET28a, Ni-NTA purified (His). In general terms: In ITC the heat of successive injections is recorded.

The target in a further data set is T2, DDX1 (UniProt Q92499 1-728).
T2 sequence: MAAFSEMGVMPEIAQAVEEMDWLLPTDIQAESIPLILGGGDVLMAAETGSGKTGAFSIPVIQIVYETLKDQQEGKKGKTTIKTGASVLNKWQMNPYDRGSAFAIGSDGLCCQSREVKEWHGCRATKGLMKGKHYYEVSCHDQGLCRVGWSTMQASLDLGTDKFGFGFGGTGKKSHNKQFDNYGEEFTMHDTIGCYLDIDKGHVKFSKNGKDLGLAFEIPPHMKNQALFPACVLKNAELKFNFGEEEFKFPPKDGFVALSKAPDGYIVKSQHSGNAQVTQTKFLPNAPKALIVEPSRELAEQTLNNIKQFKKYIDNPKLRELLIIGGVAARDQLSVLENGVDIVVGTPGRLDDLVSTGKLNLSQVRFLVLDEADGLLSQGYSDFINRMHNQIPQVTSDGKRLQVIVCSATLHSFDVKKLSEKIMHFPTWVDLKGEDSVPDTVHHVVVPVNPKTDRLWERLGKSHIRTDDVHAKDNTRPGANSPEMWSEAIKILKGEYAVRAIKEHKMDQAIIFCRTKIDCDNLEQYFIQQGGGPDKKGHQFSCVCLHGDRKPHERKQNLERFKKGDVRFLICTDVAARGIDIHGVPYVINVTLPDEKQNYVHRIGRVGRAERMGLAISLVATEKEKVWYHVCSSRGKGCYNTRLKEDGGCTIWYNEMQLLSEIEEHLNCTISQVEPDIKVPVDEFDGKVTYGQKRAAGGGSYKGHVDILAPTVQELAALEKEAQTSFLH
Described as above. Particulars: protein: recombinant; tags: pET28a, Ni-NTA purified (His).

In the case of AAGAUC (ssRNA, 2'-O-methyl A) [Am-modified ssRNA (ITC)], the binding result was “no binding” in the data set with DDX1 lacking D2 domain and “binds” with DDX1.

The values are drawn from PMC8441146, “DNA-guided photoactivatable probe-based chemical proteomics reveals the reader protein of mRNA methylation”.
